The subject of experiment [1] is OTUB1. Kind of experiment: OTUB1-SSG: GSH immunoprecipitation followed by OTUB1 Western blot. It is filed as cell-based, mouse. To be noted: cells treated with recombinant protein. Here is the method: OTUB1 was one of the PSSG targets detected in IL1B-stimulated epithelial cells raising the possibility that S-glutathionylation of OTUB1 affects the stability of SLC7A11. To investigate this, immunoprecipitation of GSH followed by Western Blotting of OTUB1 in MTE cells treated with vehicle or IL1B was performed. Dithiothreitol (DTT) was incubated with cell lysates prior to immunoprecipitation as a negative control. OTUB1 levels from whole cell lysates were used as the input control. Increases in OTUB1 S-glutathionylation (OTUB1-SSG) in response to IL1B were observed, with further increases occurring in cells lacking Glrx (FIG. 4G), consistent with the role of GLRX as a deglutathionylating enzyme. Western blots were performed using cells treated with the WT- or C23S-mutant GLRX recombinant protein to examine the presence of glutaredoxin (FIG. 4H) and total PSSG (FIG. 4I) (P-value*<0.05, **<0.01, ***<0.001, ****<0.0001). GAPDH was used as a loading control. Glutathione was evaluated in MTE cells treated with recombinant WT- or C23S-mutant GLRX (FIG. 4J) and glutamate in cell culture supernatant of MTE cells treated with WT or the C23S mutant GLRX was also evaluated (FIG. 4K). […]
For orientation: In western blotting, separated proteins are transferred to a membrane and probed.

The subject of experiment [2] is mouse tracheal epithelial (MTE) cells. Kind of experiment: Extracellular glutamate in cell culture supernatant of MTE cells. It is filed as cell-based. As to conditions: direct administration of recombinant protein to MTE cells. The source says: A regulator of GSH homeostasis is the transporter system xC-, which exports glutamate and concomitantly imports cystine in a 1:1 ratio. Once inside the cells, cystine is reduced to two cysteines, the latter being the rate limiting amino acid required for GSH synthesis. These relationships were examined further. […] To address whether IL1B-induced increases in GSH are system xC- dependent, two system xC- inhibitors, erastin (Er) and sulfasalazine (SAS) were used. Cells were pretreated for one hour, followed by IL1B treatment for 24 hours. Then, GSH levels were measured in cells exposed to increasing doses of Er or SAS (FIG. 2G). Extracellular glutamate levels in cell culture supernatant of cells pretreated with 0.5 micromolar Er (left) or 100 micromolar SAS (right) for 1 hour before IL1B stimulation were also measured (FIG. 2H). […] System xC- inhibition is known to induce ferroptosis, an iron-dependent mode of cell death characterized by increased lipid peroxidation. However, no changes in cell viability using erastin (5 micromolar) or sulfasalazine (500 micromolar) were detected (FIG. 2I; P-value*<0.05, ***<0.001, ****<0.0001).
Primary mouse tracheal epithelial (MTE) cells were isolated from C57BL/6NJ wild-type or C57BL6/NJ mice lacking Glrx1 gene and cultured. Cells were grown on collagen coated plastic plates or transwell inserts with media change every 2 days until confluency. For interleukin 1B (IL1B) treatment: cells were incubated in plain Dulbecco's Modified Eagle Medium (DMEM): F12 media containing 6 mM glucose and 2 mM glutamine overnight followed by stimulation with 10 ng/ml IL1B or 0.1% bovine serum albumin (BSA) in phosphate buffered saline (PBS) (vehicle control) for 24 hours. Treatment with crastin, sulfasalazine or BSO occurred 1 hour before IL1B stimulation. Media and cells were collected for further analysis. For growing H522 and OTUB1-CRISPR-H522 cells: Roswell Park Memorial Institute (RPMI) media supplemented with 10% fetal bovine serum (FBS) and 1% pen/strep was used to grow the cells. Plasmid over-expression and OTUB1 knock-down experiments were done when cells were 60-70% confluent.
Glutamate in media was measured using Biovision kit following manufacturer's protocol.

The test system of experiment [3] is H522 cells. Kind of experiment: Synergy of GLRX and cisplatin in killing of H522 cells (Synergy Finder). Type of experiment: cell-based. As to conditions: Chou-Talalay method (Synergy Finder).
The subject of experiment [4] is KRAS-mutant A549 cells. Description: A549 cell viability / cisplatin-induced killing. It is filed as cell-based.
The subject of experiment [5] is human LUAD organoids. Description: Human LUAD organoid viability / cisplatin-induced killing. It is filed as cell-based. An excerpt:
To date, the first line therapy for advanced KRAS-mutant lung adenocarcinoma (LUAD) consists of platinum-based chemotherapy in combination with the immune checkpoint inhibitor, pembrolizumab, or pembrolizumab alone in patients whose tumors have PD-L1 expression equal or greater than 50%. […] However, tumor resistance to platinum and toxicity is limited in its effectiveness, necessitating the development of strategies to increase sensitivity to cisplatin-induced killing and increase responsiveness to immune checkpoint inhibitors. Increases in GSH contribute to resistance of cisplatin-induced killing. In one study we administered 20 μg/ml of GLRX to human LUAD organoids in the presence or absence of cisplatin.

Experiment [6] concerns OTUB1 and UBCH5A. Description: Interaction between OTUB1 and UBCH5A. Type of experiment: cell-based. As to conditions: FIG. 14D. The source says:
OTUB1 was previously shown to interfere with ubiquitination and subsequent proteasomal degradation of SLC7A11. Overexpression of OTUB1 decreased ubiquitinated SLC7A11 (FIG. 17). […] The OTUB1-mediated attenuation of ubiquitination can occur through multiple mechanisms. OTUB1 can act as a canonical deubiquitinase that cleaves K48 chains. Alternatively, OTUB1 also can inhibit the function of E2 conjugating enzymes, including UBCH5 and OTUB1 has been found in a complex with E2 enzymes. Additionally, binding of E2 enzymes to OTUB1 can also promote OTUB1 deubiquitinase activity dependent on the ratio of ubiquitin-charged E2 to uncharged E2 enzyme and levels of free ubiquitin. OTUB1 D88 binds E2 enzymes and suppresses Ub-conjugating activity. Stabilization of SLC7A11 by OTUB1 has been speculated to involve directly binding between OTUB1 and SLC7A11 as well as the inhibition of E2 enzymes. […] These collective observations, along with observed increases in GSH following expression of OTUB1-C91S (FIG. 6C) support a non-canonical role of OTUB1 in augmenting GSH. […] To address this possible scenario, the present disclosure determined whether OTUB1-S-glutathionylation affected the interaction between OTUB1 and UBCH5A which requires the N-terminal region containing C23. […]

B1: GLRX: recombinant wild-type glutaredoxin protein, deglutathionylating enzyme, administered directly to cells (protein, UniProt P35754 2-106, looked up)
Glutaredoxin-1: AQEFVNCKIQPGKVVVFIKPTCPYCRRAQEILSQLPIKQGLLEFVDITATNHTNEIQDYLQQLTGARTVPRVFIGKDCIGGCSDLVSLQQSGELLTRLKQIGALQ
As for B1, in experiment [1], the “OTUB1-SSG (OTUB1 S-glutathionylation)” value is “decreased”. Besides, in experiment [2], the extracellular glutamate entry is listed as “decreased”. The “synergy with cisplatin (ZIP Score)” value in experiment [3] is above 10. Further, the viability result in experiment [4] (GLRX alone) is “did not decrease”. Also, the cisplatin-induced killing result in experiment [4] (GLRX with cisplatin) is listed as “promoted”. Further, in experiment [5] (20 μg/ml GLRX alone), the “viability of human LUAD organoids” value is given as “did not affect”. In addition, the “sensitivity to cisplatin-induced tumor organoid killing” value in experiment [5] (20 μg/ml GLRX with cisplatin, compared to cisplatin only) is reported as “strongly increased”. Further, the “interaction between OTUB1 and UBCH5A” value in experiment [6] is listed as “decreases”.

Values taken from US20260027190A1, “OVARIAN TUMOR DEUBIQUITINASE OXIDATION AND USES THEREOF” (The University of Vermont and State Agricultural College, priority 2022, published 2026).
